Data reported in paper PMC12319226 (Frontiers in Bioinformatics, 2025).
Positions count from the first letter of the chain named.

T1: fHbp mutant 0014 (Neisseria meningitidis, fHbp v1.1 mutant, point mutant)
T1 chain: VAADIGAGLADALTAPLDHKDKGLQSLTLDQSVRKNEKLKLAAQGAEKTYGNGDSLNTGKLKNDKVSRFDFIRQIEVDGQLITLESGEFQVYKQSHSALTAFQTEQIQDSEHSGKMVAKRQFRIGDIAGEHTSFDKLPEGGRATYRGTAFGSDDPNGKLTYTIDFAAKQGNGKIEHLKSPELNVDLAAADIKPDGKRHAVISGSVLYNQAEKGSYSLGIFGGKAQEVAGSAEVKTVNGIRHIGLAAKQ

T2: fHbp mutant 0021 (Neisseria meningitidis, fHbp v3.28 …, point mutant)
T2 chain: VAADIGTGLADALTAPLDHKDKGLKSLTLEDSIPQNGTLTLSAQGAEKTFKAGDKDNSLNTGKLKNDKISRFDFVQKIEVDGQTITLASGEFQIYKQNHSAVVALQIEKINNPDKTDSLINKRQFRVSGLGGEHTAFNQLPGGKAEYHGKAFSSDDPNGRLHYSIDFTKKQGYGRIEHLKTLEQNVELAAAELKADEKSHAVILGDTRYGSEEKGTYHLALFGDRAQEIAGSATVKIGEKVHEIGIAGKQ

T3: fHbp mutant 0024 (Neisseria meningitidis, fHbp v3.28 …, point mutant)
T3 chain: T2 chain with K122Q, Q124S, R126L, E239N, K240G, V241I, E243H

T4: fHbp m000019 (Neisseria meningitidis, fHbp v1.1 …, point mutant)
T4 chain: T1 chain with K38T, K40T, A42S, I72V, Q74K, Q106K, M116L, A118N, P155A, N156G

T5: factor H binding protein variant 3.28 (Neisseria meningitidis, fHbp variant …)
T5 construct: also called fHbp v3.28; v3.28 Control (0002)
T5 chain: T2 chain with K122Q, Q124S, R126L

T6: fHbp mutant 0015 (Neisseria meningitidis, fHbp v1.1 mutant, point mutant)
T6 chain: T1 chain with I72V, Q74K, Q106K, M116L, A118N

T7: fHbp mutant 0017 (Neisseria meningitidis, fHbp v1.1 mutant, point mutant)
T7 chain: T1 chain with K38T, K40T, A42S, I72V, Q74K, M116L, A118N

T8: fHbp mutant 0016 (Neisseria meningitidis, fHbp v1.1 mutant, point mutant)
T8 chain: T1 chain with K38T, K40T, A42S, E76R, V77S, Q106K, M116L, A118N

B1: mAb 1E6 (human) (antibody, V domains shown)
VH: EVQLVQSGAEVKKPGSSVKVSCKASGGTVIDYPITWVRQAPGQGLEWVGGFVPLFRTSNYGQKFQGRVTITADKSTSTASMELNSLTSEDTAIYYCARGDTAMGPFDYWGQGTLVTVSS
VL: SYVLTQPPSLSVAPGKTATLTCGGNNIAGKTVHWYQQRPGQAPVLVISYDSDRPSGIPERFSGSNSANTATLTISRVEAGDEADYYCQVWDRNSDHWVFGGGTKLTVL
notes: source: Expi293, purified (MabSelect SuRe, SEC); copies: 2 + 2
B2: mAb 4B3 (human) (antibody, V domains shown)
VH: QVQLVQSGGGLVKPGGSLRLSCAASGFPFSSYYMSWIRQAPGKGLEWVSDINNSGNVKEYADFVKGRLTISRDNVKNSMYLHMNSLRVEDTAVYYCARNRGRFDVWGQGTLVTVSA
VL: EIVMTQSPGTLSLSPGETATLSCRASQMISSPFLAWYQQRRGQAPRLLIYGASTRATDTPDRFRGSGSGTDFILTISRLEPEDFAVYYCQYYDDSPFTFGQGTKLEIK
notes: also called 4B3-2; source: Expi293, purified (MabSelect SuRe, SEC); copies: 2 + 2

How the values were obtained:
Assay in all cases: BLI
Details in all cases: both partners purified
fHbp mutant 0014 = target: T1, fHbp mutant 0014
fHbp mutant 0021 = target: T2, fHbp mutant 0021
fHbp mutant 0024 = target: T3, fHbp mutant 0024
[1] = target: T9, factor H binding protein variant 1.1 (Neisseria meningitidis serogroup B …, UniProt Q9JXV4)
T9 construct: also called fHbp v1.1; v1.1 Control (0001)

fHbp m000019 = target: T4, fHbp m000019
[2] = target: T5, factor H binding protein variant 3.28
fHbp mutant 0015 = target: T6, fHbp mutant 0015
fHbp mutant 0017 = target: T7, fHbp mutant 0017
fHbp mutant 0016 = target: T8, fHbp mutant 0016

Binder | Kd (fHbp mutant 0014) [nM] | koff (fHbp mutant 0014) [s⁻¹] | kon (fHbp mutant 0014) [M⁻¹ s⁻¹] | Kd (fHbp mutant 0021) [nM] | koff (fHbp mutant 0021) [s⁻¹] | kon (fHbp mutant 0021) [M⁻¹ s⁻¹] | Kd (fHbp mutant 0024) [nM] | koff (fHbp mutant 0024) [s⁻¹] | kon (fHbp mutant 0024) [M⁻¹ s⁻¹] | Kd [1] [nM] | koff [1] [s⁻¹] | kon [1] [M⁻¹ s⁻¹] | Kd (fHbp m000019) [nM] | koff (fHbp m000019) [s⁻¹] | kon (fHbp m000019) [M⁻¹ s⁻¹] | Kd [2] [nM] | koff [2] [s⁻¹] | kon [2] [M⁻¹ s⁻¹] | Kd (fHbp mutant 0015) [nM] | koff (fHbp mutant 0015) [s⁻¹] | other results
B1 | 2.11 | 0.00204 | 964100 ± 5740 | 0.654 | 0.000333 | 508900 ± 2640 | 0.369 | 0.000271 | 734700 ± 2210 | 3.4 | 0.00447 | 1.32e+06 ± 14800 | 2.19 | 0.00153 | 698800 ± 3080 | 1.76 | 0.000238 | 135000 ± 961 | 1.42 | 0.000862 | kon (fHbp mutant 0015): 609000 ± 6530 M⁻¹ s⁻¹; Kd (fHbp mutant 0017): 4.23 nM; koff (fHbp mutant 0017): 0.00199 s⁻¹; kon (fHbp mutant 0017): 471400 ± 4100 M⁻¹ s⁻¹; Kd (fHbp mutant 0016): 0.69 nM; koff (fHbp mutant 0016): 0.000223 s⁻¹; kon (fHbp mutant 0016): 323000 ± 3620 M⁻¹ s⁻¹
B2 | 1.57 | 0.00116 | 736500 ± 3130 | 1.82 | 0.00084 | 460100 ± 2250 | 1.48 | 0.000969 | 655000 ± 3130 | 1.33 | 0.00103 | 767900 ± 4960 | 5.53 | 0.00124 | 224400 ± 1040 | 5.15 | 0.000542 | 105000 ± 1620 | 3.57 | 0.00129 | kon (fHbp mutant 0015): 360000 ± 5970 M⁻¹ s⁻¹; Kd (fHbp mutant 0017): 2.98 nM; koff (fHbp mutant 0017): 0.000964 s⁻¹; kon (fHbp mutant 0017): 324100 ± 1980 M⁻¹ s⁻¹; Kd (fHbp mutant 0016): 4.74 nM; koff (fHbp mutant 0016): 0.00131 s⁻¹; kon (fHbp mutant 0016): 276800 ± 1380 M⁻¹ s⁻¹
